Source: patent publication US20220372107A1

How the values were obtained:
[1] = molecular target: T1, TGFβ2 (human) (UniProt P61812)
T1 sequence (looked up): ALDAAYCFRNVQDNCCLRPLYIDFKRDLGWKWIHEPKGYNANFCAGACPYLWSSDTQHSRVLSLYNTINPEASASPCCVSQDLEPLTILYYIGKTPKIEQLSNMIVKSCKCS

[2] = molecular target: T2, activin B (UniProt P09529)
T2 sequence (looked up): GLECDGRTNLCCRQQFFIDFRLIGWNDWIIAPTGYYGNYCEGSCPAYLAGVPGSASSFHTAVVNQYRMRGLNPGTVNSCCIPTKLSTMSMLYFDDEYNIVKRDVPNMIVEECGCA

[3] = molecular target: T3, activin A (UniProt P08476)
T3 sequence (looked up): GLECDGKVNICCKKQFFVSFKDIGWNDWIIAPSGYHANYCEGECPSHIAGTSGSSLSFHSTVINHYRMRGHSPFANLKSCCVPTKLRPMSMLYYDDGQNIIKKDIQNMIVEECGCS

[4] = molecular target: T4, GDF11 (UniProt O95390)
T4 sequence (looked up): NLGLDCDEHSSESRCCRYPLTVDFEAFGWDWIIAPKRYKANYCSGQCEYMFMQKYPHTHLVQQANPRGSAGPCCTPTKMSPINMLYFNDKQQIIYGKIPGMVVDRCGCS

[5] = molecular target: T5, BMP10 (UniProt O95393)
T5 sequence (looked up): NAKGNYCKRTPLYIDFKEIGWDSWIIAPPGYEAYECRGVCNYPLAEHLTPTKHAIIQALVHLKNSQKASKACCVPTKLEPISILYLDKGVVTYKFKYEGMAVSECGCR

[6] = molecular target: TGFβ1 (human) (UniProt P01137)
[7] = molecular target: T6, TGFβ3 (human) (UniProt P10600)
T6 sequence (looked up): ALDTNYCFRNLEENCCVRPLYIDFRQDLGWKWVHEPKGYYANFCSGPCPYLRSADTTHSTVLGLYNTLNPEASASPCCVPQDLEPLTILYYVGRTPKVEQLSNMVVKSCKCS

Chain of UniProt P01137 (P01137 279-390 limits assumed): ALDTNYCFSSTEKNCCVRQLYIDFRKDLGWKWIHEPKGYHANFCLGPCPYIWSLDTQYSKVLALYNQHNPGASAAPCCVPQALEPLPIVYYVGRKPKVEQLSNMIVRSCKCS

IC50 (CAGA12 luciferase reporter gene assay) [1] [µg/mL] | IC50 (CAGA12 luciferase reporter gene assay) [2] | IC50 (CAGA12 luciferase reporter gene assay) [3] | IC50 (CAGA12 luciferase reporter gene assay) [4] | IC50 (CAGA12 luciferase reporter gene assay) [5] [µg/mL] | IC50 (CAGA12 luciferase reporter gene assay) [6] [nM] | IC50 (CAGA12 luciferase reporter gene assay) [7] [nM] | Substance
> 20 | > 20 µg/mL | > 20 µg/mL | > 20 µg/mL | > 20 | 0.017 |  | TβRII-Fc homodimer (Fc fusion)
> 20 | 1.16 nM | 1.28 nM | 18.1 nM | > 20 | 0.21 | 0.39 | ActRIIA-Fc:TβRII-Fc heterodimer (Fc fusion)
